{"source": "paper PMC3307385", "biological_target": "mouse soluble recombinant SLLP1 (mouse) (UniProt Q9D9X8)", "sequence (Q9D9X8 95-221)": "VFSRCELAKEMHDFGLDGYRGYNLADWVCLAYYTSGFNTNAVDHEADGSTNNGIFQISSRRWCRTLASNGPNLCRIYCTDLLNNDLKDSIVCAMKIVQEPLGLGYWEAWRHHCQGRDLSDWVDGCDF", "assay": "SPR", "data": [{"substance": "recombinant mouse SAS1B (V2), full length doublet (~51, ~50 kD) (natural protein)", "values": [{"measurement": "Kd", "result": 0.32, "unit": "nM"}]}]}
